The supplement of paper PMC5998384

Experiments:
HeLa Kyoto [1] = assay: thermal stability score vs G1/S (z-score of summed log2 fold changes over temperatures); higher = more thermally stable than in G1/S
HeLa Kyoto [2] = assay: solubility in G1/S (NP-40 vs SDS abundance) (log2 ratio); higher = more soluble; conditions: cell cycle stage: G1/S
HeLa Kyoto [3] = assay: solubility change mitosis vs G1/S (difference of NP-40 vs SDS log2 ratios) (log2 ratio difference); higher = more soluble in mitosis
HeLa Kyoto [4] = assay: melting temperature (median over replicates), in situ; higher = more thermally stable
[5] = cell cycle stage: early G1 (4.5 h after nocodazole release)
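Wherever melting temperature (median over replicates), in situ is given: HeLa Kyoto cells synchronized by double thymidine or nocodazole block, proteins quantified by TMT10plex mass spectrometry, three independent biological replicates.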
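Wherever solubility change mitosis vs G1/S (difference of NP-40 vs SDS log2 ratios) is given: synchronized HeLa Kyoto cells (double thymidine block for G1/S, nocodazole release for mitosis), protein amounts in NP-40 versus SDS lysates quantified by mass spectrometry, three biological replicates.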
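Wherever solubility in G1/S (NP-40 vs SDS abundance) is given: HeLa Kyoto cells arrested at G1/S by double thymidine block, proteins quantified by TMT10plex mass spectrometry in mild NP-40 versus SDS extracts, three biological replicates.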
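Wherever thermal stability score vs G1/S (z-score of summed log2 fold changes over temperatures) is given: synchronized HeLa Kyoto cells, proteins quantified by TMT10plex mass spectrometry, three biological replicates, mitosis taken 0.5 h after nocodazole release, G1/S directly after double thymidine block.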

Substance	thermal stability score (HeLa Kyoto [1]; [5])	thermal stability score (HeLa Kyoto [1]; cell cycle stage: mitosis)	solubility in G1/S (log2) (HeLa Kyoto [2])	solubility change mitosis (log2) (HeLa Kyoto [3])	melting temperature (HeLa Kyoto [4]; cell cycle stage: G1/S) [°C]	melting temperature (HeLa Kyoto [4]; cell cycle stage: mitosis) [°C]
MEGPAEWGPEAALGPEAVLRFLAERGGRALHAELVQHFRGALGGEPEQRARARAHFKELVNAVATVRVDPADGAKYVHLKKRFCEGPSEPSGDPPRIQVTAEPEAPDGPAGPEARDRLPDAAAPESLPGQGRELGEGEPPAPAHWPPLSAGARRKNSRRDVQPLPRTPAPGPSEDLELPPHGCEEADRGSSLVGATAQRPARQNLRDLVMGSSPQLKRSVCPGGSSPGSSSGGGRGRGGGDSDSASVASSSAEEESSGGGSVTLDPLEHAWMLSASDGKWDSLEGLLTCEPGLLVKRDFITGFTCLHWAAKHGRQELLAMLVNFANKHQLPVNIDARTSGGYTALHLAAMHGHVEVVKLLVGAYDADVDIRDYSGKKASQYLSRSIAEEIKNLVGALDEGDGESAAGSGGGRWRLSKVLPSHLITYKLSHALEDGGDHHHHHHSAEGWVGGKAKDPGRKASGSSSGRIKPRLNKIRFRTQIVHTTPSFRDPEQPLEGRGEEGVGEERPVKGHSPFTLRPKSNVFG [SOWAHC]	0.128	-0.236	0.325	0.021	51.2	49.7
FLNB	-0.118	0.998	-0.0724	-0.0508	51.8	51.3
MNIMDFNVKKLAADAGTFLSRAVQFTEEKLGQAEKTELDAHLENLLSKAECTKIWTEKIMKQTEVLLQPNPNARIEEFVYEKLDRKAPSRINNPELLGQYMIDAGTEFGPGTAYGNALIKCGETQKRIGTADRELIQTSALNFLTPLRNFIEGDYKTIAKERKLLQNKRLDLDAAKTRLKKAKAAETRNSSEQELRITQSEFDRQAEITRLLLEGISSTHAHHLRCLNDFVEAQMTYYAQCYQYMLDLQKQLGSFPSNYLSNNNQTSVTPVPSVLPNAIGSSAMASTSGLVITSPSNLSDLKECSGSRKARVLYDYDAANSTELSLLADEVITVFSVVGMDSDWLMGERGNQKGKVPITYLELLN [SH3GLB1]	1.13	2.44	0.531	0.00172	48.1	48.7
MMRLRGSGMLRDLLLRSPAGVSATLRRAQPLVTLCRRPRGGGRPAAGPAAAARLHPWWGGGGWPAEPLARGLSSSPSEILQELGKGSTHPQPGVSPPAAPAAPGPKDGPGETDAFGNSEGKELVASGENKIKQGLLPSLEDLLFYTIAEGQEKIPVHKFITALKSTGLRTSDPRLKECMDMLRLTLQTTSDGVMLDKDLFKKCVQSNIVLLTQAFRRKFVIPDFMSFTSHIDELYESAKKQSGGKVADYIPQLAKFSPDLWGVSVCTVDGQRHSTGDTKVPFCLQSCVKPLKYAIAVNDLGTEYVHRYVGKEPSGLRFNKLFLNEDDKPHNPMVNAGAIVVTSLIKQGVNNAEKFDYVMQFLNKMAGNEYVGFSNATFQSERESGDRNFAIGYYLKEKKCFPEGTDMVGILDFYFQLCSIEVTCESASVMAATLANGGFCPITGERVLSPEAVRNTLSLMHSCGMYDFSGQFAFHVGLPAKSGVAGGILLVVPNVMGMMCWSPPLDKMGNSVKGIHFCHDLVSLCNFHNYDNLRHFAKKLDPRREGGDQRVKSVINLLFAAYTGDVSALRRFALSAMDMEQRDYDSRTALHVAAAEGHVEVVKFLLEACKVNPFPKDRWNNTPMDEALHFGHHDVFKILQEYQVQYTPQGDSDNGKENQTVHKNLDGLL	0.55	2.21	0.0237	-0.0383	49.7	50.4
MSLEQRSLHCKPEEALEAQQEALGLVCVQAATSSSSPLVLGTLEEVPTAGSTDPPQSPQGASAFPTTINFTRQRQPSEGSSSREEEGPSTSCILESLFRAVITKKVADLVGFLLLKYRAREPVTKAEMLESVIKNYKHCFPEIFGKASESLQLVFGIDVKEADPTGHSYVLVTCLGLSYDGLLGDNQIMPKTGFLIIVLVMIAMEGGHAPEEEIWEELSVMEVYDGREHSAYGEPRKLLTQDLVQEKYLEYRQVPDSDPARYEFLWGPRALAETSYVKVLEYVIKVSARVRFFFPSLREAALREEEEGV [MAGEA1]	0.313	2.38	-0.178	-0.0297	48.4	49.5
MGDPAPARSLDDIDLSALRDPAGIFELVEVVGNGTYGQVYKGRHVKTGQLAAIKVMDVTEDEEEEIKQEINMLKKYSHHRNIATYYGAFIKKSPPGNDDQLWLVMEFCGAGSVTDLVKNTKGNALKEDCIAYICREILRGLAHLHAHKVIHRDIKGQNVLLTENAEVKLVDFGVSAQLDRTVGRRNTFIGTPYWMAPEVIACDENPDATYDYRSDIWSLGITAIEMAEGAPPLCDMHPMRALFLIPRNPPPRLKSKKWSKKFIDFIDTCLIKTYLSRPPTEQLLKFPFIRDQPTERQVRIQLKDHIDRSRKKRGEKEETEYEYSGSEEEDDSHGEEGEPSSIMNVPGESTLRREFLRLQQENKSNSEALKQQQQLQQQQQRDPEAHIKHLLHQRQRRIEEQKEERRRVEEQQRREREQRKLQEKEQQRRLEDMQALRREEERRQAEREQEYKRKQLEEQRQSERLQRQLQQEHAYLKSLQQQQQQQQLQKQQQQQLLPGDRKPLYHYGRGMNPADKPAWAREVEERTRMNKQQNSPLAKSKPGSTGPEPPIPQASPGPPGPLSQTPPMQRPVEPQEGPHKSLVAHRVPLKPYAAPVPRSQSLQDQPTRNLAAFPASHDPDPAIPAPTATPSARGAVIRQNSDPTSEGPGPSPNPPAWVRPDNEAPPKVPQRTSSIATALNTSGAGGSRPAQAVRARPRSNSAWQIYLQRRAERGTPKPPGPPAQPPGPPNASSNPDLRRSDPGWERSDSVLPASHGHLPQAGSLERNRVGVSSKPDSSPVLSPGNKAKPDDHRSRPGRPADFVLLKERTLDEAPRPPKKAMDYSSSSEEVESSEDDEEEGEGGPAEGSRDTPGGRSDGDTDSVSTMVVHDVEEITGTQPPYGGGTMVVQRTPEEERNLLHADSNGYTNLPDVVQPSHSPTENSKGQSPPSKDGSGDYQSRGLVKAPGKSSFTMFVDLGIYQPGGSGDSIPITALVGGEGTRLDQLQYDVRKGSVVNVNPTNTRAHSETPEIRKYKKRFNSEILCAALWGVNLLVGTENGLMLLDRSGQGKVYGLIGRRRFQQMDVLEGLNLLITISGKRNKLRVYYLSWLRNKILHNDPEVEKKQGWTTVGDMEGCGHYRVVKYERIKFLVIALKSSVEVYAWAPKPYHKFMAFKSFADLPHRPLLVDLTVEEGQRLKVIYGSSAGFHAVDVDSGNSYDIYIPVHIQSQITPHAIIFLPNTDGMEMLLCYEDEGVYVNTYGRIIKDVVLQWGEMPTSVAYICSNQIMGWGEKAIEIRSVETGHLDGVFMHKRAQRLKFLCERNDKVFFASVRSGGSSQVYFMTLNRNCIMNW [MINK1]	0.759	2.05	-0.0708	0.157	49.8	50.7
MATLRRLREAPRHLLVCEKSNFGNHKSRHRHLVQTHYYNYRVSFLIPECGILSEELKNLVMNTGPYYFVKNLPLHELITPEFISTFIKKGSCYALTYNTHIDEDNTVALLPNGKLILSLDKDTYEETGLQGHPSQFSGRKIMKFIVSIDLMELSLNLDSKKYERISWSFKEKKPLKFDFLLAWHKTGSEESTMMSYFSKYQIQEHQPKVALSTLRDLQCPVLQSSELEGTPEVSCRALELFDWLGAVFSNVDLNNEPNNFISTYCCPEPSTVVAKAYLCTITGFILPEKICLLLEHLCHYFDEPKLAPWVTLSVQGFADSPVSWEKNEHGFRKGGEHLYNFVIFNNQDYWLQMAVGANDHCPP [RPP40]	-1.89	-4.46	-0.386	-0.00249	55.5	56.5
MATSLGSNTYNRQNWEDADFPILCQTCLGENPYIRMTKEKYGKECKICARPFTVFRWCPGVRMRFKKTEVCQTCSKLKNVCQTCLLDLEYGLPIQVRDAGLSFKDDMPKSDVNKEYYTQNMEREISNSDGTRPVGMLGKATSTSDMLLKLARTTPYYKRNRPHICSFWVKGECKRGEECPYRHEKPTDPDDPLADQNIKDRYYGINDPVADKLLKRASTMPRLDPPEDKTITTLYVGGLGDTITETDLRNHFYQFGEIRTITVVQRQQCAFIQFATRQAAEVAAEKSFNKLIVNGRRLNVKWGRSQAARGKEKEKDGTTDSGIKLEPVPGLPGALPPPPAAEEEASANYFNLPPSGPPAVVNIALPPPPGIAPPPPPGFGPHMFHPMGPPPPFMRAPGPIHYPSQDPQRMGAHAGKHSSP [RBM22]	-0.922	-0.478	-0.116	0.274	48.6	49.8
MAEAEEQETGSLEESTDESEEEESEEEPKLKYERLSNGVTEILQKDAASCMTVHDKFLALGTHYGKVYLLDVQGNITQKFDVSPVKINQISLDESGEHMGVCSEDGKVQVFGLYSGEEFHETFDCPIKIIAVHPHFVRSSCKQFVTGGKKLLLFERSWMNRWKSAVLHEGEGNIRSVKWRGHLIAWANNMGVKIFDIISKQRITNVPRDDISLRPDMYPCSLCWKDNVTLIIGWGTSVKVCSVKERHASEMRDLPSRYVEIVSQFETEFYISGLAPLCDQLVVLSYVKEISEKTEREYCARPRLDIIQPLSETCEEISSDALTVRGFQENECRDYHLEYSEGESLFYIVSPRDVVVAKERDQDDHIDWLLEKKKYEEALMAAEISQKNIKRHKILDIGLAYINHLVERGDYDIAARKCQKILGKNAALWEYEVYKFKEIGQLKAISPYLPRGDPVLKPLIYEMILHEFLESDYEGFATLIREWPGDLYNNSVIVQAVRDHLKKDSQNKTLLKTLAELYTYDKNYGNALEIYLTLRHKDVFQLIHKHNLFSSIKDKIVLLMDFDSEKAVDMLLDNEDKISIKKVVEELEDRPELQHVYLHKLFKRDHHKGQRYHEKQISLYAEYDRPNLLPFLRDSTHCPLEKALEICQQRNFVEETVYLLSRMGNSRSALKMIMEELHDVDKAIEFAKEQDDGELWEDLILYSIDKPPFITGLLNNIGTHVDPILLIHRIKEGMEIPNLRDSLVKILQDYNLQILLREGCKKILVADSLSLLKKMHRTQMKGVLVDEENICESCLSPILPSDAAKPFSVVVFHCRHMFHKECLPMPSMNSAAQFCNICSAKNRGPGSAILEMKK [VPS41]	0.549	0.342	-0.0889	-0.131	50.2	49.8
MSRDRFRSRGGGGGGFHRRGGGGGRGGLHDFRSPPPGMGLNQNRGPMGPGPGQSGPKPPIPPPPPHQQQQQPPPQQPPPQQPPPHQPPPHPQPHQQQQPPPPPQDSSKPVVAQGPGPAPGVGSAPPASSSAPPATPPTSGAPPGSGPGPTPTPPPAVTSAPPGAPPPTPPSSGVPTTPPQAGGPPPPPAAVPGPGPGPKQGPGPGGPKGGKMPGGPKPGGGPGLSTPGGHPKPPHRGGGEPRGGRQHHPPYHQQHHQGPPPGGPGGRSEEKISDSEGFKANLSLLRRPGEKTYTQRCRLFVGNLPADITEDEFKRLFAKYGEPGEVFINKGKGFGFIKLESRALAEIAKAELDDTPMRGRQLRVRFATHAAALSVRNLSPYVSNELLEEAFSQFGPIERAVVIVDDRGRSTGKGIVEFASKPAARKAFERCSEGVFLLTTTPRPVIVEPLEQLDDEDGLPEKLAQKNPMYQKERETPPRFAQHGTFEYEYSQRWKSLDEMEKQQREQVEKNMKDAKDKLESEMEDAYHEHQANLLRQDLMRRQEELRRMEELHNQEMQKRKEMQLRQEEERRRREEEMMIRQREMEEQMRRQREESYSRMGYMDPRERDMRMGGGGAMNMGDPYGSGGQKFPPLGGGGGIGYEANPGVPPATMSGSMMGSDMRTERFGQGGAGPVGGQGPRGMGPGTPAGYGRGREEYEGPNKKPRF [SFPQ]	4.77	7.88	-0.264	0.67	47.7	48.9
MGSRVSREDFEWVYTDQPHADRRREILAKYPEIKSLMKPDPNLIWIIIMMVLTQLGAFYIVKDLDWKWVIFGAYAFGSCINHSMTLAIHEIAHNAAFGNCKAMWNRWFGMFANLPIGIPYSISFKRYHMDHHRYLGADGVDVDIPTDFEGWFFCTAFRKFIWVILQPLFYAFRPLFINPKPITYLEVINTVAQVTFDILIYYFLGIKSLVYMLAASLLGLGLHPISGHFIAEHYMFLKGHETYSYYGPLNLLTFNVGYHNEHHDFPNIPGKSLPLVRKIAAEYYDNLPHYNSWIKVLYDFVMDDTISPYSRMKRHQKGEMVLE [DEGS1]	-0.898	-1.88	-0.186	-0.264	55	55.2
